Test: soluble fraction after stress (log2 fold change); higher = more stays soluble; pooled small domains, quantitative proteomics
Details: stress: pH 4
How it was run: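 Small protein domains from pooled custom libraries were exposed to pH 4, then quantified with high-throughput quantitative proteomics. The fold change in how much of each domain remains soluble is read as aggregation propensity. It is given as log2, with higher values meaning more stayed soluble.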

## HMRRSDLVTQGDEILKRLQWNQQQAKDFLNQHLKASSRQQLTDEQLLNFNMLLEEQLVKSME
  soluble fraction (log2): -0.0311

## HMRRSLIGPTVRERRRALGITQSRLAAEVGISASYLNLIEGDKRNIGGALLQRIAGALGLALD
  soluble fraction (log2): 0.0185

## HMRRTVIVTAAHAEIRERPDANAPLVFSAEQKVSLDYQETAPGGWVKVRHRDGQSGYVRTNQI
  soluble fraction (log2): -0.159

## HMRRVGTALNRSHKVSYGESIQSIAARYNVNPTMLREYNRLKPEATITPGQILRIPPATIAS
  soluble fraction (log2): -0.195

## HMRRVRRTRRLLQDGLLGLMQHKAVADISVKELAEAADVARATVYVHFKDPADVLHQLEQGLY
  soluble fraction (log2): -0.151

## HMRSDHVFTSHLARRDKYISELESLSDSARDDHIQTIKEEDEYLLKYRRTRNLFGIPLNDEMKQFEPFNY
  soluble fraction (log2): -1.16

## HMRSEILNLLREKSPQPVSGQDLANHFGITRTAVWKHIQSLKKMGYGIEAYTKKGYVLVSVPN
  soluble fraction (log2): 0.175

## HMRSGEDESFSAGLLEYPHYTRPAEFEGHRIPDILTSGDHAKVDAWRQEMSEHITRERRPDLWEMYKKK
  soluble fraction (log2): 0.0228

## HMRSHLSANLQRLRHIAGLTQKDLALAANLPRATLASLEQGEANPRLDTLLAVASALQVGLDELIAAP
  soluble fraction (log2): -1.1

## HMRSIMAVSNYRHKKILEMVYQRKSVSADELAAEFGVSKITIRRDLDTLAMDKLLERTRGGAISISD
  soluble fraction (log2): -0.128

## HMRSRHYRFSTPFLDRLIAEIDWNSDNALSIFNQKLVHFDFLKYFSAIQPGSIVEIENLNFIWTGKRLEAH
  soluble fraction (log2): -0.71

## HMRSVLSDEIYLLIRKMIFNYEILPGAKVNIDALAKKLDVSQTPVREALSRLESDGLIVKEPLKGFRATD
  soluble fraction (log2): -0.239

## HMRSVPNVAGLGMDGAAFQLGKAGFAIGTITPADDPKAVVGSIQRTEPAAGTVADRDTVVNLFQV
  soluble fraction (log2): 0.22

## HMRSVTLQTDREGDILYVDGKQIGVSPQRLELSYGVHTIRAERGEQHTEKELEVTETGGETVVTLGFG
  soluble fraction (log2): -0.0908

## HMRSYTPGSAFRLSSVPVYNAETGPSIGVRSGTYYIHSLPVSNGRIRMTNLISRVGKPGQVSFWVEISR
  soluble fraction (log2): 0.0269

## HMRTAELEVWDDDELNDVVKLIQNNHNINTLKLRFQENVSFSGLSLIAAVLTKQSIILEIEY
  soluble fraction (log2): -1.32

## HMRTDQYHYLAWKQVADELGIPFDEQVNERLRGVSRMASFDIILERYDGTMSDEEKIHWTDKKNEIYKSM
  soluble fraction (log2): -1.68

## HMRTGLSGMIGEIGIVKQAIDPEGKVAVHGELWKARADVALAAGQTVRVVAVDGLTMTVEATDSK
  soluble fraction (log2): 0.0837

## HMRTIPDALIGRPYESVETAIVLEGLQAKRTEVFHPTIRPGTVIRLEPTSGSELLRDGVVEIFVSQGPETT
  soluble fraction (log2): -1.47

## HMRTITIDDSIAGKRLDEALTLLGAESSRTKVKLLFSSPNGVLVNGEKEKPHYRVEAGDVIQFGELPKK
  soluble fraction (log2): -0.104

## HMRTKEGLASQLEKIPGIGPVKRKALLKKFGSIDAIAAASKEELMLTDGITSSLADAIRDYF
  soluble fraction (log2): 0.391

## HMRTLKDSTEYLIRSMLLRGEMKVGEIYSANALAKELNISNSPVREAMMSLVDRGLLENVRNRGFRVV
  soluble fraction (log2): -0.115

## HMRTLRENIMDYFKQQTIIQKSSVILLPMSKRQLADYFGVQRPSLFRELKKLKEEGIIEINNRTITIK
  soluble fraction (log2): -0.0293

## HMRTSIWTAIAHSLRSDIGSGVYGPDDKLPTESALAARFGVNRHTVRHAIKALTDEGLVLPRRGAGVFVTS
  soluble fraction (log2): -0.207

## HMRTSPGADYEKTYYTIQSGDNLGAIAEKMGVSVADLKDWNDISGTKIYAGKKLVIYVKKGST
  soluble fraction (log2): -0.209

## HMRTTTGSEGMIGSIGKAKTDLAPDGKIFIHGELWDATSSSPVSAGQKIEVTQIEGLKLHVKPVL
  soluble fraction (log2): 0.12

## HMRTVLSDETYLRIREMLLTHDIAPGERINIDALARELDVSQTPVREALARLESEDLVTKEPLRGYTATK
  soluble fraction (log2): -0.123

## HMRTYEHALTEEEKELILIVSNLSEYKSLPPSQIVPKLADLGIYIASESSFYRVLRAHNQLHHRGR
  soluble fraction (log2): -1.27

## HMRTYYEILGVSKNASLHEIQKAYRELALKYHPKNNSDPTAEEKFTQINEAYTHLSDAARRRSYDDL
  soluble fraction (log2): 0.362

## HMRVGADLTQRERELLALMAQGMSNQEIAKRLEIAVPTVKFHITNILDKLQVGNRTEAVIAALEHKLVP
  soluble fraction (log2): -0.767

## HMRVKLVKKSILASGGENIRVDKFLSNHILTMTRTQIKKLFLDGLVQVNKSFVKPGSILKGNEIITFSIPE
  soluble fraction (log2): -0.412

## HMRVNINVSENILDWVMKRVNPSVLSSKQGELLYAWKEGRKVPTYNQIEKMSKVTGIPLGYFFLEKPPVE
  soluble fraction (log2): 0.411

## HMRVPQWLVDKIAAAGIDTHRSGPALKALAAKAGTPEQLDQAIARAKALRRRTGSTQSLNVGLLGSILEGT
  soluble fraction (log2): -0.0808

## HMRVQELARDLGVEADTLIALLRQMGIPVTGARSAINDAQQAKVLAKIERERRAGHSDPAKAIQAVLEEAS
  soluble fraction (log2): 0.0597

## HMRVSNADALIGRRGKANSDIRRGDYGWVAIDGDVWKSKLADDITEDIPMGAIVEVLSRDSIILTVKP
  soluble fraction (log2): -1.08

## HMRWAAIMGREVAAHSTPESLVEGKLHIRTDTTAWATQLRLMSADIVRRLNEVLGEGTVLEVDVRG
  soluble fraction (log2): -1.12

## HMRWSDQKEIVTLSLDHVLVEKGRKTKEYSWREFRTFTAFEIKKSSKDQINLGFKSKGNTVIIGNF
  soluble fraction (log2): -0.438

## HMSAAELFEERQRQYLRGRKSTKNIADNHGTIILRAGETITDQAIDKAKVAGKLVELVMNNE
  soluble fraction (log2): 0.144

## HMSADDSDDRKGIDAWLTQLLANGSVKATEVYSAADAAGYSKDQAKRAKRRLAIEAVREAMDGPWFWRLD
  soluble fraction (log2): -0.742

## HMSAEDQRRASQEAAYRFMQVMAGNEAGFEDAARALFAGDNHRFEVLIQSWPDDVRDHVSLLSVDAFA
  soluble fraction (log2): -1.78

## HMSAEVMLRRLIDENDPSSENARYILAVMLERKKILAPVDVKNEKKSKMLFYEHQKTGEAFIVRDP
  soluble fraction (log2): -0.17

## HMSAEVSEIEIQRIISYYRNQNGVPDKYNEIFDRIAAQYTDEQLKVISNFLPSDVKQYLSFNNEKYKSLG
  soluble fraction (log2): -0.955

## HMSAGKKSFTNSEFRRFLDALGEGLIVKHKKLGEGVVVEIRGDKAVIQFGDEQRLYELKTLYEYDLLR
  soluble fraction (log2): -0.874

## HMSALAQDGDLVQLQGAGYKSHILRLKAGEVLQTHRGVIQHDAVIGQPWGARLQSHTGSPFYLFQPGLADL
  soluble fraction (log2): -0.187

## HMSALTELPVKTVNGKKYHYYVVKQHETVYALSKRFGITPEQLIKYNPSAEDGLQIDQELLFPATEI
  soluble fraction (log2): -0.282

## HMSANVSMEEALRRTSQAHSLAGKWMRRVLQMAQGRDLIEQMQREAQEAHLPELIGMSVQLEFIRRG
  soluble fraction (log2): -0.363

## HMSAPEGWMNRGDLRDNFRIQYPVTDRIIASYRESHPEWFGTYLSKTSKSLEYFHPDLVAKVREAAN
  soluble fraction (log2): -0.145

## HMSAPQKWDGSLQDFIRFKQEAKTLMDNIPNKRLALNAILETISDGKMRKRLAKYDGPESALKSLELEFGN
  soluble fraction (log2): 0.0286

## HMSAQDLIVRRDSARIEARVTEISPTEIRYKRASNPDGPTYVLPLGDVRSIRYANGEEEVFAPA
  soluble fraction (log2): -0.0969

## HMSAQQTFLRDAMRRLNMTRDSFAERIGVRRRALDTWLLPEDSSEYRTMPSIVEKFVGEILGREA
  soluble fraction (log2): 0.112

## HMSARKVTVALHTRDHADRLRRLLKHEGVSADLVAARLSHKLTDHPIEVRVNEDDIPAVLRIIENIEIF
  soluble fraction (log2): -0.707

## HMSASLPAAVEDPDLPYRVGAKLRHARWGEGLLVGIQREGSDVIATVHFASVGRKRLSLQYAHLEE
  soluble fraction (log2): -0.785

## HMSATIMVLRASEDIPVGTEIKDNHLTTVEVGSYGLPEGAINDKDTVLGKVAQTNIIKGDYFFPQKLGG
  soluble fraction (log2): -1.18

## HMSDAQIKASINDLWFKYNLETFAKLNLNVNQGRVLVTGIVQNPEHRLEAIRLVWTVDGVQQVINEIQVAE
  soluble fraction (log2): -1.23

## HMSDDIPVHYRLDVNDAARALKLLTDNGFSAETAESGLNVYMTRLQSAEAARLLVENNIAVYGLTAV
  soluble fraction (log2): -0.196

## HMSDDLIILGYSMLNNALKAFHIDPDSIKKKHWDKLAQDYHLKNKNQILTDIALGKRVNIMVAHQLTTIMD
  soluble fraction (log2): -1.32

## HMSDDSYLVALAEAYKNATSWDIRRQVLSIMTGVSSYKEISRYIPGLTQYRLSISNLHRLQYGRAAPVP
  soluble fraction (log2): -0.217

## HMSDEAGKVLQLLRENGGYLPYNDRSDPEDIYAFFSMSKKTFKMTAGNLYKQKKIIFTNTGIKLTE
  soluble fraction (log2): 0.317

## HMSDEVNTDKAFRAIDSTLNRNVKGIAPRDHTLLRNTMITYFKSNDYIDYDTMIQSTLENYKPTELEQDKM
  soluble fraction (log2): 0.135

## HMSDGHLIKVLEVLDGGEAFLGRTANGGTARFSLGQLADIRRGSVVFVSEDRWEVVPDSAWPEI
  soluble fraction (log2): -1.29

## HMSDGIPDLRNLNFLSPQEGDYLNESDRVFGVTINGDGQAYPLRIVNAHEMVNDTLGGEPISLM
  soluble fraction (log2): -0.34

## HMSDHKNANFTKVVKVAQELLQDEDDKAGITPTLIEEKISAVLAMNRRWAEGLDRAAVADELIRRFSIW
  soluble fraction (log2): -0.951

## HMSDIATLVPGPTDAELAASALRGLDAALDADTPVRLSLGEPGGEVEVPRSVLAALARVLDSFAHGEGVTL
  soluble fraction (log2): -0.443

## HMSDIISEIESQVMFKLATYEITNATEKMIEALINSEINDRRTLGFPIPNEQGRIFLVRSIQNKLAV
  soluble fraction (log2): -1.54

## HMSDIIVQGNRRLDTDLIITDSQIREIGTDEKSLSLAVKNLYKTGYFENVQIFKDNSVVFINVKENQ
  soluble fraction (log2): -0.358

## HMSDIQKGTQINLVNEPLYVSSKTSIVSTYKTGTYYTWGFEANNRIAITNKLENIGVKGQVTGWINKP
  soluble fraction (log2): 0.0239

## HMSDKFNALWIILNKLDKKEKVTARSLMEDLEVSERSVYRYITTLQVAGFPVDYDRAVNSYVFSDGYTLK
  soluble fraction (log2): -2.16

## HMSDKLTLPVQINGVFRYTIEINPSMQKDEIIDLVKNEERTAKYKQDKEIKNVIVVPGKIVNIII
  soluble fraction (log2): 0.22

## HMSDLPLLEHARQNLSDDEFRILELTTIYGYRRVEVAKMLGEPISTINWKYNKLIKKVKTFYGEVYN
  soluble fraction (log2): -0.567

## HMSDLVATKEQVVEAYKYGLGLGLDNSTLKMLLFDIRGEDVADQDKISDGMTVSEIEIWKEGMRTIAEEYL
  soluble fraction (log2): -1.07

## HMSDMIGQNIRRLRTEKQMTQKALADKLFVTAQAVSRWENGEVEPSLSTVTEIARIFNVSADEILGI
  soluble fraction (log2): -0.284

## HMSDPDPAEQALLRQFMTRYAAYRRRGQHPAGAFRTASLEVFGQEPSGDLRDVIVDLESGLV
  soluble fraction (log2): -0.59

## HMSDPELNDNEKKIYDIIFNKKSMDLTELKNLSELSNKQWDKGIKSLSKQDFVKVIKTEEALIVELV
  soluble fraction (log2): -0.126

## HMSDPSAQADALFNEGKTAEAFNVLLRLIEDSPEDQREDYRVRLLDLFRIAGNTPEVKAARRRLSALLM
  soluble fraction (log2): -0.101

## HMSDRFVRIVMNDGTVKLGQMISEDADFIRLKTNNLGELNIPKYLVLDMMDLTRSEYVRLSISNAG
  soluble fraction (log2): -0.426

Reference: the domain aggregation screens of Martell et al. (2025)
